Source: EP4676952A2 (dated 2026)

Key:
[1] = biological target: T1, human complement component 2 (C2), purified protein (human, UniProt P06681 21-752); experiment: SPR, Biacore T200, nanobody immobilised on a CM5 chip, human C2 2.97 to 248 nM as analyte, 1:1 Langmuir model
T1 construct: mature; Purified human C2 (Complement Tech); called 'Full-length C2' in the ELISA; In the serum-based functional assays the C2 is that of normal human serum; also called human C2; full-length C2
T1 sequence (looked up): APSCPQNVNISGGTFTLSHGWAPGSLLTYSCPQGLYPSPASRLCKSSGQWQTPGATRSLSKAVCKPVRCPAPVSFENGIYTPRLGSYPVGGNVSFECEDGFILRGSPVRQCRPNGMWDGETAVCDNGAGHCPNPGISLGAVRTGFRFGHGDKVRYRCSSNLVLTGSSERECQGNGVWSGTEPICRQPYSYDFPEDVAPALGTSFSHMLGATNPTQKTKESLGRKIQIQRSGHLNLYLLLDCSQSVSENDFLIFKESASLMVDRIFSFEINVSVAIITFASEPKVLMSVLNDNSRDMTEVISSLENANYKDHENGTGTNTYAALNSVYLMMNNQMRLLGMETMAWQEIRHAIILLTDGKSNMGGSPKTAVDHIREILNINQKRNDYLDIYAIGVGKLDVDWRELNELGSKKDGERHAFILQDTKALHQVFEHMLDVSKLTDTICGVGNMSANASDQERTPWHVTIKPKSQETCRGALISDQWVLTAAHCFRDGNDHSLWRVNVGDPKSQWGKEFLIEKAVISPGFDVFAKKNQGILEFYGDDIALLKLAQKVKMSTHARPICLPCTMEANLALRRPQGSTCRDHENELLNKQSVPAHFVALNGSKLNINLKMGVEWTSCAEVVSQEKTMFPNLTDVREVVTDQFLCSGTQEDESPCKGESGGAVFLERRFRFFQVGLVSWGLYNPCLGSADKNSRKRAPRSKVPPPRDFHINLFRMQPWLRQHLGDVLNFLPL

[2] = biological target: T2, human C2b (small fragment of C2) (human, UniProt P06681); experiment: ELISA
T2 chain: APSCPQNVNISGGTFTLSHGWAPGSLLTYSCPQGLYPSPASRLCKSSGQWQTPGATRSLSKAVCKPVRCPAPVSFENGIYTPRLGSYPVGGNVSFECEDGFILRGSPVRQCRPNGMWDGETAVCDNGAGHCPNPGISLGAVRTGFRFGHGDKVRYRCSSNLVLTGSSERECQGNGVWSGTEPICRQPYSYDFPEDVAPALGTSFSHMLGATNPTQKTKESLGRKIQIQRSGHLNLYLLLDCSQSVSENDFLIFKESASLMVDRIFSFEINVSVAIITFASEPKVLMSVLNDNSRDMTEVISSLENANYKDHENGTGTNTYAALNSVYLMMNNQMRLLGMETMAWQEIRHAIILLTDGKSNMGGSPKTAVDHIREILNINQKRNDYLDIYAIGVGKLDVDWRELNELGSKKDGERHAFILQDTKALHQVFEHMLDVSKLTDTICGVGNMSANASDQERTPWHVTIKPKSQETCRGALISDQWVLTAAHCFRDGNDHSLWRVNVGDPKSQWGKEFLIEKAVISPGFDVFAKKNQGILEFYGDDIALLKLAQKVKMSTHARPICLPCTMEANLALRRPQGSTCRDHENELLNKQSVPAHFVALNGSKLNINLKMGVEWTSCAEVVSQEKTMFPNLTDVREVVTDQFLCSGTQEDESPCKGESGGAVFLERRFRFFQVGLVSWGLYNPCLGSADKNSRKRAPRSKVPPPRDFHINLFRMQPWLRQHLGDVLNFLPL

C2b fragment of human C2 = biological target: T3, C2b fragment of human C2 (human, UniProt P06681 21-243); experiment: pull-down of C1s-cleaved C2 with His-tagged nanobody on cobalt resin, western blot with goat anti-C2 polyclonal antibody
T3 construct: domain: C2b; also called smaller fragment C2b
T3 sequence (looked up): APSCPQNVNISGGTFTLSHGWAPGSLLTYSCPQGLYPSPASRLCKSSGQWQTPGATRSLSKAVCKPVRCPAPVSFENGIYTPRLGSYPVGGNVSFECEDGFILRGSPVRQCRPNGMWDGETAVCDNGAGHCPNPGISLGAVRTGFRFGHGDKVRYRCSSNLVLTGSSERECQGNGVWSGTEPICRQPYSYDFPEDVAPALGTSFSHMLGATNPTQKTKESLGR

[3] = biological target: T1, human complement component 2 (C2), …; experiment: cell-based or functional assay

B1: Clone 1B10 C2 nanobody (Nab1B10), monovalent, His-tagged (VHH)
VHH: QVQLQESGGGLVQAGGSLRLSCAASGHTFRSYYMGWFRQAPGKEREFVASISWTGGSTEYADSVKGRFTISRDNAKNTVYLQMNSLKPEDTAAYYCAADYSGDFLLSDLDSWGQGTQVTVSS
notes: Alpaca VHH expressed in E. coli BL21 from the pMES4 vector; single 15 kDa band on SDS-PAGE; also called NablBlO; Nabl BIO; not shown: His tag (monovalent form is 'His-tagged', purified on cobalt resin)
Kd [1]: 3.03 nM
koff [1]: 0.000395 s⁻¹
kon [1]: 131000 M⁻¹ s⁻¹
binding result [2]: no binding
binding result (C2b fragment of human C2): no binding
MicroVue CH50 Eq EIA (C5b-9 generation, classical pathway, normal human serum), EC50 [3]: 53 nM
classical complement pathway-mediated hemolytic assay (EShA, normal human serum), IC50 [3]: ~3 nM
